Source: patent publication US20240148728

Target: T1, recombinant SNAP-tagged NLRP1^DR purified from bacteria
T1 chain: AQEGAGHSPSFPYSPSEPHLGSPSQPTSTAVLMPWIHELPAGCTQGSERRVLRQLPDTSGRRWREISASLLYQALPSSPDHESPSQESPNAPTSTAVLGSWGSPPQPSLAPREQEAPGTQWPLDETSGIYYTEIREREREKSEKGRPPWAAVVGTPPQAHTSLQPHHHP

B1: ZAKα kinase (wild-type) (protein)
chain: MSSLGASFVQIKFDDLQFFENCGGGSFGSVYRAKWISQDKEVAVKKLLKIEKEAEILSVLSHRNIIQFYGVILEPPNYGIVTEYASLGSLYDYINSNRSEEMDMDHIMTWATDVAKGMHYLHMEAPVKVIHRDLKSRNVVIAADGVLKICDFGASRFHNHTTHMSLVGTFPWMAPEVIQSLPVSETCDTYSYGVVLWEMLTREVPFKGLEGLQVAWLVVEKNERLTIPSSCPRSFAELLHQCWEADAKKRPSFKQIISILESMSNDTSLPDKCNSFLHNKAEWRCEIEATLERLKKLERDLSFKEQELKERERRLKMWEQKLTEQSNTPLLPSFEIGAWTEDDVYCWVQQLVRKGDSSAEMSVYASLFKENNITGKRLLLLEEEDLKDMGIVSKGHIIHFKSAIEKLTHDYINLFHFPPLIKDSGGEPEENEEKIVNLELVFGFHLKPGTGPQDCKWKMYMEMDGDEIAITYIKDVTFNTNLPDAEILKMTKPPFVMEKWIVGIAKSQTVECTVTYESDVRTPKSTKHVHSIQWSRTKPQDEVKAVQLAIQTLFTNSDGNPGSRSDSSADCQWLDTLRMRQIASNTSLQRSQSNPILGSPFFSHFDGQDSYAAAVRRPQVPIKYQQITPVNQSRSSSPTQYGLTKNFSSLHLNSRDSGFSSGNTDTSSERGRYSDRSRNKYGRGSISLNSSPRGRYSGKSQHSTPSRGRYPGKFYRVSQSALNPHQSPDFKRSPRDLHQPNTIPGMPLHPETDSRASEEDSKVSEGGWTKVEYRKKPHRPSPAKTNKERARGDHRGWRNF
**Q.** Which “phosphorylation in a recombinant kinase reaction (PhosTag SDS-PAGE, SNAP ligand fluorescence)” value does the source give for B1 here?
**A.** recombinant ZAKα is sufficient to phosphorylate SNAP-tagged NLRP1^DR purified from bacteria

B2: p38β (protein)
chain: MSGPRAGFYRQELNKTVWEVPQRLQGLRPVGSGAYGSVCSAYDARLRQKVAVKKLSRPFQSLIHARRTYRELRLLKHLKHENVIGLLDVFTPATSIEDFSEVYLVTTLMGADLNNIVKCQALSDEHVQFLVYQLLRGLKYIHSAGIIHRDLKPSNVAVNEDCELRILDFGLARQADEEMTGYVATRWYRAPEIMLNWMHYNQTVDIWSVGCIMAELLQGKALFPGSDYIDQLKRIMEVVGTPSPEVLAKISSEHARTYIQSLPPMPQKDLSSIFRGANPLAIDLLGRMLVLDSDQRVSAAEALAHAYFSQYHDPEDEPEAEPYDESVEAKERTLEEWKELTYQEVLSFKPPEPPKPPGSLEIEQ
**Q.** Which “phosphorylation in a recombinant kinase assay” value does the source give for B2 here?
**A.** both p38α/β can phosphorylate NLRP1^DR in a recombinant kinase assay
